Results on two molecules are retold here after patent publication US12391751B2, “Antibody against advanced glycation end products and use thereof” (Bloom Technology Corporation, priority 2018, dated 2025).

The target in assay [1] is T1, reaction of the SJ-5 antibody with A-peak-BSA (Bos taurus, UniProt P02769).
T1 construct: made in house
Kind of assay: Cross-competition with HRP-labeled SJ-5 antibody by competitive ELISA (Example 33). The settings on record: competitor antibody 0.049 to 50 μg/mL. The format is binding. As for the experimental part:
A solution of A-peak-BSA prepared into 1 μg/mL in a coating solution was added at 100 μL/well to a 96-well microtiter plate (Costar) and incubated overnight at 4° C.
Each well after the immobilization treatment was washed three times with a washing solution (300 μL), and PBS containing 0.05% Tween 20 (PBS-T) and containing 0.5% gelatin dissolved therein (200 μL) was added thereto and left standing at room temperature for 1 hour.
The PB-1 antibody, a mouse IgG isotype control (Ctrl-mIgG, Thermo Fisher Scientific Inc.), and the anti-GA-pyridine antibody 2A2 (Cosmo Bio Co., Ltd.) were each diluted with PBS-T containing 0.1% gelatin to prepare 4-fold dilution series (0.049 to 50 μg/mL). Also, a HRP-labeled SJ-5 antibody (Example 4) was diluted 10000-fold with PBS-T containing 0.1% gelatin.
Each well treated with the blocking solution was washed three times with a washing solution (300 μL), and the sample solutions of 4-fold dilution series (50 μL each) and the HRP-labeled SJ-5 antibody dilution solution (50 μL) were added thereto, stirred with a plate mixer for 2 minutes, and then incubated at room temperature for 1 hour. […]
Absorbance was measured at a dominant wavelength of 450 nm and a sub-wavelength of 650 nm with a microplate reader (Cytation 5, BioTek Instrument Inc.), and the absorbance at the sub-wavelength was subtracted from the absorbance at the dominant wavelength.

Assay [2] is described as follows: Reactivity of SJ-5 with Lys-hydroxy-triosidine by competitive ELISA (Example 18). The format is binding. The settings on record: immobilized Glycer-AGEs-BSA. As for the experimental part:
A solution of BSA containing AGEs derived from glyceraldehyde (stock solution: 10 mg/mL PBS solution) prepared into 1 μg/mL in a coating solution was added at 100 μL/well to a 96-well microtiter plate (COSTAR) and incubated overnight at 4° C.
Each well after the immobilization treatment was washed three times with a washing solution (300 μL), and a blocking solution (200 μL) was added thereto and left at room temperature for 1 hour.
GAL691 (prepared in Example 16) and Lys-hydroxy-triosidine (prepared in Example 17) were each dissolved in a phosphate buffer solution (0.2 M, pH 7.4) to prepare a 10 mg/mL solution. Sample solutions of 2-fold dilution series from 0.625 to 10 mg/ml (5 points) were further prepared by dilution with a diluting solution. Dilution solutions were also prepared from a blank solution containing no sample in the same way as above. […]
Absorbance was measured at a dominant wavelength of 450 nm and a sub-wavelength of 650 nm with a microplate reader (Cytation 5, BioTek Instrument Inc.), and the absorbance at the sub-wavelength was subtracted from the absorbance at the dominant wavelength. Change in the absorbance of GAL691 and Lys-hydroxy-triosidine was indicated as relative values to the absorbance of the blank solution.
For orientation: In an ELISA, binding on a coated surface is turned into a signal by an enzyme label.

T1 sequence (P02769 25-607): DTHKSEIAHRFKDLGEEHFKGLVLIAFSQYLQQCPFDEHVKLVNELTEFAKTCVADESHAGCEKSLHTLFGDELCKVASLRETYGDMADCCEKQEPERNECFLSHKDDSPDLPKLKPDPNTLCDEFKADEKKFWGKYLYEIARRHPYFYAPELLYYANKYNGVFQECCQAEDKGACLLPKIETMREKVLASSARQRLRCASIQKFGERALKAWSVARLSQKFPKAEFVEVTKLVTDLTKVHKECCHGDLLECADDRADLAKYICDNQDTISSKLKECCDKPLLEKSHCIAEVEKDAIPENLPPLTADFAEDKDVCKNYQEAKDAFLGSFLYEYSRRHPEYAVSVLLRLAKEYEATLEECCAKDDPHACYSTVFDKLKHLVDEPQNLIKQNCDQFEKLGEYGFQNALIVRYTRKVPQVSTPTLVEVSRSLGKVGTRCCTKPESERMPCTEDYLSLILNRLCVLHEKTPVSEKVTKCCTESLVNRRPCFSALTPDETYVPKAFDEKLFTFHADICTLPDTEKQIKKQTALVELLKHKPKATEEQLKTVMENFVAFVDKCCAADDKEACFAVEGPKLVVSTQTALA

B1: PB-1: mouse monoclonal antibody raised against A-peak-BSA; heavy-chain variable region SEQ ID NO 18, light-chain variable region SEQ ID NO 22 (antibody, listed as Mus musculus, V domains shown)
VH: EVRLQQSGPELVKPGTSVKISCKASGYSFTGYYMHWVKQSPVKSLEWIGRIIPYNGATSYNQNFKDKASLTVDKSSRTAYMDLHSLTSEDSAVYYCARSRYYGRAPYYFDYWGQGTTLTVSS
VL: DVVVTQTPLSLPVSLGDQASISCRSSQSIVHSNGNTYLEWYLQKPGQSPKLLIYKVSNRFSGVPDRISGSGSGTDFTLKISRVEAGDLGVYSCFQGSHVPFTFGSGTKLEIK
On to B1, for which the “change in absorbance of HRP-labeled SJ-5 binding to A-peak-BSA (cross-competition)” value in assay [1] is “decreased in a PB-1 concentration-dependent manner”.

B2: SJ-5: mouse monoclonal antibody raised against GAL13-MSA; heavy-chain variable region SEQ ID NO 4, light-chain variable region SEQ ID NO 8 (antibody, listed as Mus musculus, V domains shown)
VH: EVMLVESGGRLVKPGGSLKLSCAASGFTFSSYGMSWVRQTPEKRLEWVATISGGGSYTYYPDSVKGRFTISRDNVKNNLYLQMSSLRSEDTALYYCARRGAYGDYGWFAYWGQGTLVTVSA
VL: DIVLTQSPATLSVTPGDSVSLSCRASQSINNNLHWYQQKSHESPRLLIKCASQSISGIPSRFSGSGSGTDFTLSINSVETEDFGMYFCQQSNSWPLTFGAGTKLELK
As for B2, the “recognition of Lys-hydroxy-triosidine” value in assay [2] is listed as “does not recognize”.
